Read-outs that look alike come from different tables or passages of the source.
Legend:
Test in all cases: SPR
Aβ1-42 fibers [1] = target: Aβ1-42 fibers (human)
Aβ1-40 fibers [2] = target: Aβ1-40 fibers (human)
Aβ1-40 fibers [3] = target: Aβ1-40 fibers (human); remark: listed apart in the source
Aβ1-42 fibers [4] = target: Aβ1-42 fibers (human); remark: listed apart in the source

Row | Binder | Kd (Aβ1-42 fibers [1]) [nM] | Kd (Aβ1-40 fibers [2]) [nM] | Kd (Aβ1-40 fibers [3]) [nM] | Kd (Aβ1-42 fibers [4]) [nM]
1 | MS-R 7.4H2 x 7.12L2 Fab (antibody, V domains shown) VH: QLVESGGGLVQPGGSLRLSCAASGFTFSSYAMSWVRQAPGKGLEWVSAINYNGARIYYADSVKGRFTISRDNSKNTLYLQMNSLRAEDTAVYYCARGKGNTHKPYGYVRYFDVWGQGTLVTVSS VL: DIVLTQSPATLSLSPGERATLSCRASQRFFYKYLAWYQQKPGQAPRLLISGSSNRATGVPARFSGSGSGTDFTLTISSLEPEDFAVYYCLQLYNIPNTFGQGTKVEIKR | 1.8 | 1.4 | – | –
2 | MS-R 7.9H2 x 7.12L1 Fab (antibody, V domains shown) VH: QLVESGGGLVQPGGSLRLSCAASGFTFSSYAMSWVRQAPGKGLEWVSAINADGNRKYYADSVKGRFTISRDNSKNTLYLQMNSLRAEDTAVYYCARGKGNTHKPYGYVRYFDVWGQGTLVTVSS VL: DIVLTQSPATLSLSPGERATLSCRASQYVFRRYLAWYQQKPGQAPRLLISGSSNRATGVPARFSGSGSGTDFTLTISSLEPEDFAVYYCLQLYNIPNTFGQGTKVEIKR | 1.1 | 1.2 | – | –
3 | MS-R 7.2H2 x 7.2L1 Fab (antibody, V domains shown) VH: QLVESGGGLVQPGGSLRLSCAASGFTFSSYAMSWVRQAPGKGLEWVSAINGTGMKKYYADSVKGRFTISRDNSKNTLYLQMNSLRAEDTAVYYCARGKGNTHKPYGYVRYFDVWGQGTLVTVSS VL: DIVLTQSPATLSLSPGERATLSCRASQYVDRTYLAWYQQKPGQAPRLLIYGASSRATGVPARFSGSGSGTDFTLTISSLEPEDFATYYCQQIYSFPHTFGQGTKVEIKR | 1.43 | 1.29 | – | –
4 | MS-R 3.3H1 x 3.4L9 Fab (antibody, V domains shown) VH: QLVESGGGLVQPGGSLRLSCAASGFTFSSYAMSWVRQAPGKGLEWVSVISEKSRFIYYADSVKGRFTISRDNSKNTLYLQMNSLRAEDTAVYYCARLTHYARYYRYFDVWGQGTLVTVSS VL: DIVLTQSPATLSLSPGERATLSCRASRRIHVYYLAWYQQKPGQAPRLLIYGASSRATGVPARFSGSGSGTDFTLTISSLEPEDFATYYCQQTYDYPPTFGQGTKVEIKR | 2.97 | 2.16 | – | –
5 | MS-R 7.9H2 x 7.2L1(L1) Fab (antibody, V domains shown) VH: QLVESGGGLVQPGGSLRLSCAASGFTFSSYAMSWVRQAPGKGLEWVSAINADGNRKYYADSVKGRFTISRDNSKNTLYLQMNSLRAEDTAVYYCARGKGNTHKPYGYVRYFDVWGQGTLVTVSS VL: DIVLTQSPATLSLSPGERATLSCRASQYVDRTYLAWYQQKPGQAPRLLIYGASSRATGVPARFSGSGSGTDFTLTISSLEPEDFATYYCQQIYSFPHTFGQGTKVEIKR | 1.4 | 1.4 | – | –
6 | MS-R 3.4H7 x 3.4L7 Fab (antibody, V domains shown) VH: QLVESGGGLVQPGGSLRLSCAASGFTFSSYAMSWVRQAPGKGLEWVSVISETGKNIYYADSVKGRFTISRDNSKNTLYLQMNSLRAEDTAVYYCARLTHYARYYRYFDVWGQGTLVTVSS VL: DIVLTQSPATLSLSPGERATLSCRASQRLGRLYLAWYQQKPGQAPRLLIYGASSRATGVPARFSGSGSGTDFTLTISSLEPEDFATYYCQQTYDYPPTFGQGTKVEIKR | 1.23 | 1.19 | – | –
7 | MS-R 3.4H3 x 3.4L9 Fab (antibody, V domains shown) VH: QLVESGGGLVQPGGSLRLSCAASGFTFSSYAMSWVRQAPGKGLEWVSVISQTGRKIYYADSVKGRFTISRDNSKNTLYLQMNSLRAEDTAVYYCARLTHYARYYRYFDVWGQGTLVTVSS VL: DIVLTQSPATLSLSPGERATLSCRASRRIHVYYLAWYQQKPGQAPRLLIYGASSRATGVPARFSGSGSGTDFTLTISSLEPEDFATYYCQQTYDYPPTFGQGTKVEIKR | 0.93 | 1.05 | – | –
8 | MS-R 7 Fab (antibody, V domains shown) VH: not shown VL: DIVLTQSPATLSLSPGERATLSCRASQSVSSSYLAWYQQKPGQAPRLLIYGASSRATGVPARFSGSGSGTDFTLTISSLEPEDFATYYCFQLYSDPFTFGQGTKVEIKR | – | – | 1100 | 1710
9 | MS-R 3.6H5 x 3.6L2 Fab (antibody, V domains shown) VH: QLVESGGGLVQPGGSLRLSCAASGFTFSSYAMSWVRQAPGKGLEWVSAISESGKTKYYADSVKGRFTISRDNSKNTLYLQMNSLRAEDTAVYYCARLTHYARYYRYFDVWGQGTLVTVSS VL: DIVLTQSPATLSLSPGERATLSCRASQFLSRYYLAWYQQKPGQAPRLLIYGASSRATGVPARFSGSGSGTDFTLTISSLEPEDFAVYYCQQTYNYPPTFGQGTKVEIKR | 0.84 | 1.26 | – | –
10 | MS-R 7.4H2 x 7.2L1 Fab (antibody, V domains shown) VH: QLVESGGGLVQPGGSLRLSCAASGFTFSSYAMSWVRQAPGKGLEWVSAINYNGARIYYADSVKGRFTISRDNSKNTLYLQMNSLRAEDTAVYYCARGKGNTHKPYGYVRYFDVWGQGTLVTVSS VL: DIVLTQSPATLSLSPGERATLSCRASQYVDRTYLAWYQQKPGQAPRLLIYGASSRATGVPARFSGSGSGTDFTLTISSLEPEDFATYYCQQIYSFPHTFGQGTKVEIKR | 1.4 | 1.4 | – | –
11 | MS-R 3.6H5 x 3.6L1 Fab (antibody, V domains shown) VH: QLVESGGGLVQPGGSLRLSCAASGFTFSSYAMSWVRQAPGKGLEWVSAISESGKTKYYADSVKGRFTISRDNSKNTLYLQMNSLRAEDTAVYYCARLTHYARYYRYFDVWGQGTLVTVSS VL: DIVLTQSPATLSLSPGERATLSCRASQFIQRFYLAWYQQKPGQAPRLLIYGASSRATGVPARFSGSGSGTDFTLTISSLEPEDFAVYYCQQTYNYPPTFGQGTKVEIKR | 1.04 | 1.25 | – | –
12 | MS-R 3.4H1 x 3.4L9 Fab (antibody, V domains shown) VH: QLVESGGGLVQPGGSLRLSCAASGFTFSSYAMSWVRQAPGKGLEWVSAISETSIRKYYADSVKGRFTISRDNSKNTLYLQMNSLRAEDTAVYYCARLTHYARYYRYFDVWGQGTLVTVSS VL: DIVLTQSPATLSLSPGERATLSCRASRRIHVYYLAWYQQKPGQAPRLLIYGASSRATGVPARFSGSGSGTDFTLTISSLEPEDFATYYCQQTYDYPPTFGQGTKVEIKR | 0.5 | 0.25 | – | –
13 | MS-R 3.4H7 x 3.4L9 Fab (antibody, V domains shown) VH: QLVESGGGLVQPGGSLRLSCAASGFTFSSYAMSWVRQAPGKGLEWVSVISETGKNIYYADSVKGRFTISRDNSKNTLYLQMNSLRAEDTAVYYCARLTHYARYYRYFDVWGQGTLVTVSS VL: DIVLTQSPATLSLSPGERATLSCRASRRIHVYYLAWYQQKPGQAPRLLIYGASSRATGVPARFSGSGSGTDFTLTISSLEPEDFATYYCQQTYDYPPTFGQGTKVEIKR | 3.51 | 2.66 | – | –
14 | MS-R 3.4H3 x 3.4L7 Fab (antibody, V domains shown) VH: QLVESGGGLVQPGGSLRLSCAASGFTFSSYAMSWVRQAPGKGLEWVSVISQTGRKIYYADSVKGRFTISRDNSKNTLYLQMNSLRAEDTAVYYCARLTHYARYYRYFDVWGQGTLVTVSS VL: DIVLTQSPATLSLSPGERATLSCRASQRLGRLYLAWYQQKPGQAPRLLIYGASSRATGVPARFSGSGSGTDFTLTISSLEPEDFATYYCQQTYDYPPTFGQGTKVEIKR | 0.92 | 0.92 | – | –

The remaining lines, values ahead:

Row | Kd (Aβ1-42 fibers [1]) [nM] | Kd (Aβ1-40 fibers [2]) [nM] | Kd (Aβ1-40 fibers [3]) [nM] | Kd (Aβ1-42 fibers [4]) [nM] | Binder
15 | 0.4 | 0.4 | – | – | MS-R 7.9H2 x 7.12L2(L1+2) Fab (antibody, V domains shown) VH: QLVESGGGLVQPGGSLRLSCAASGFTFSSYAMSWVRQAPGKGLEWVSAINADGNRKYYADSVKGRFTISRDNSKNTLYLQMNSLRAEDTAVYYCARGKGNTHKPYGYVRYFDVWGQGTLVTVSS VL: DIVLTQSPATLSLSPGERATLSCRASQRFFYKYLAWYQQKPGQAPRLLISGSSNRATGVPARFSGSGSGTDFTLTISSLEPEDFAVYYCLQLYNIPNTFGQGTKVEIKR
16 | – | – | 4.8 | 3.7 | MS-R 8.2L1 Fab (antibody, V domains shown) VH: not shown VL: DIVLTQSPATLSLSPGERATLSCRASQRVSGRYLAWYQQKPGQAPRLLIYGASSRATGVPARFSGSGSGTDFTLTISSLEPEDFATYYCQQLSSYPPTFGQGTKVEIKR
17 | 1.6 | 1.3 | – | – | MS-R 8.1H1 x 8.2L1 Fab (antibody, V domains shown) VH: QLVESGGGLVQPGGSLRLSCAASGFTFSSYAMSWVRQAPGKGLEWVSAISRSGSNIYYADSVKGRFTISRDNSKNTLYLQMNSLRAEDTAVYYCARLLSRGYNGYYHKFDVWGQGTLVTVSS VL: DIVLTQSPATLSLSPGERATLSCRASQRVSGRYLAWYQQKPGQAPRLLIYGASSRATGVPARFSGSGSGTDFTLTISSLEPEDFATYYCQQLSSYPPTFGQGTKVEIKR
18 | 1 | 0.1 | – | – | MS-R 7.11H2 x 7.9L1(L1) Fab (antibody, V domains shown) VH: QLVESGGGLVQPGGSLRLSCAASGFTFSSYAMSWVRQAPGKGLEWVSAINANGYKKYYADSVKGRFTISRDNSKNTLYLQMNSLRAEDTAVYYCARGKGNTHKPYGYVRYFDVWGQGTLVTVSS VL: DIVLTQSPATLSLSPGERATLSCRASQRLSPRYLAWYQQKPGQAPRLLIYGASSRATGVPARFSGSGSGTDFTLTISSLEPEDFATYYCLQIYNMPITFGQGTKVEIKR
19 | 0.47 | 0.41 | – | – | MS-R 7.11H1 x 7.11L1 Fab (antibody, V domains shown) VH: QLVESGGGLVQPGGSLRLSCAASGFTFSSYAMSWVRQAPGKGLEWVSGINAAGFRTYYADSVKGRFTISRDNSKNTLYLQMNSLRAEDTAVYYCARGKGNTHKPYGYVRYFDVWGQGTLVTVSS VL: DIVLTQSPATLSLSPGERATLSCRASQRILRIYLAWYQQKPGQAPRLLIYGASSRATGVPARFSGSGSGTDFTLTISSLEPEDFATYYCQQVYSPPHTFGQGTKVEIKR
20 | 1.39 | 1.75 | – | – | MS-R 7.11H1 x 7.2L1 Fab (antibody, V domains shown) VH: QLVESGGGLVQPGGSLRLSCAASGFTFSSYAMSWVRQAPGKGLEWVSGINAAGFRTYYADSVKGRFTISRDNSKNTLYLQMNSLRAEDTAVYYCARGKGNTHKPYGYVRYFDVWGQGTLVTVSS VL: DIVLTQSPATLSLSPGERATLSCRASQYVDRTYLAWYQQKPGQAPRLLIYGASSRATGVPARFSGSGSGTDFTLTISSLEPEDFATYYCQQIYSFPHTFGQGTKVEIKR
21 | 0.6 | 1 | – | – | MS-R 7.11H2 x 7.2L1(L1) Fab (antibody, V domains shown) VH: QLVESGGGLVQPGGSLRLSCAASGFTFSSYAMSWVRQAPGKGLEWVSAINANGYKKYYADSVKGRFTISRDNSKNTLYLQMNSLRAEDTAVYYCARGKGNTHKPYGYVRYFDVWGQGTLVTVSS VL: DIVLTQSPATLSLSPGERATLSCRASQYVDRTYLAWYQQKPGQAPRLLIYGASSRATGVPARFSGSGSGTDFTLTISSLEPEDFATYYCQQIYSFPHTFGQGTKVEIKR

Source: US7794719 (dated 2010)
